Assay results published in the supplement of paper PMC11316812.
± gives the standard deviation of the averaged measurements.

Assays:
[1] = system: hTERT-HMEC; assay: percentage of EdU-negative (G0-arrested) nuclei per well, 72 h; higher = more G0 arrest; conditions: reference: sequence is the full UniProt precursor, the tested protein was the secreted form or ectodomain
[2] = system: MCF7; assay: as above; conditions: reference: sequence is the full UniProt precursor, the tested protein was the secreted form or ectodomain
[3] = protein concentration 0.0225 µM
[4] = protein concentration 0.0185 µM
[5] = protein concentration 0.03125 µM
[6] = protein concentration 0.3125 µM
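Note: secreted proteins added to cultured cells, EdU pulse at the end, nuclei found by Hoechst imaging, EdU status from nuclear versus surrounding ring intensity ratio, PBS as neutral control.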

| Sequence | percentage of EdU-negative [1, 3] | percentage of EdU-negative ([1]; protein concentration 0.225 µM) | percentage of EdU-negative [2, 3] | percentage of EdU-negative ([2]; protein concentration 0.225 µM) | further results |
| --- | --- | --- | --- | --- | --- |
| MVTLRKRTLKVLTFLVLFIFLTSFFLNYSHTMVATTWFPKQMVLELSENLKRLIKHRPCTCTHCIGQRKLSAWFDERFNQTMQPLLTAQNALLEDDTYRWWLRLQREKKPNNLNDTIKELFRVVPGNVDPMLEKRSVGCRRCAVVGNSGNLRESSYGPEIDSHDFVLRMNKAPTAGFEADVGTKTTHHLVYPESFRELGDNVSMILVPFKTIDLEWVVSAITTGTISHTYIPVPAKIRVKQDKILIYHPAFIKYVFDNWLQGHGRYPSTGILSVIFSMHVCDEVDLYGFGADSKGNWHHYWENNPSAGAFRKTGVHDADFESNVTATLASINKIRIFKGR | 5.6 ± 0.99% | 6.41 ± 0.73% | 24.2 ± 3.6% | 28.079 ± 0.0073% |  |
| MVTSSFPISVAVFALITLQVGTQDSFIAAVYEHAVILPNKTETPVSQEDALNLMNENIDILETAIKQAAEQGARIIVTPEDALYGWKFTRETVFPYLEDIPDPQVNWIPCQDPHRFGHTPVQARLSCLAKDNSIYVLANLGDKKPCNSRDSTCPPNGYFQYNTNVVYNTEGKLVARYHKYHLYSEPQFNVPEKPELVTFNTAFGRFGIFTCFDIFFYDPGVTLVKDFHVDTILFPTAWMNVLPLLTAIEFHSAWAMGMGVNLLVANTHHVSLNMTGSGIYAPNGPKVYHYDMKTELGKLLLSEVDSHPLSSLAYPTAVNWNAYATTIKPFPVQKNTFRGFISRDGFNFTELFENAGNLTVCQKELCCHLSYRMLQKEENEVYVLGAFTGLHGRRRREYWQVCTLLKCKTTNLTTCGRPVETASTRFEMFSLSGTFGTEYVFPEVLLTEIHLSPGKFEVLKDGRLVNKNGSSGPILTVSLFGRWYTKDSLYSSCGTSNSAITYLLIFILLMIIALQNIVML |  |  |  |  | percentage of EdU-negative [1, 4]: 3.63 ± 0.35%; percentage of EdU-negative ([1]; protein concentration 0.185 µM): 6.84 ± 0.58%; percentage of EdU-negative [2, 4]: 25.8 ± 0.6%; percentage of EdU-negative ([2]; protein concentration 0.185 µM): 28.11 ± 0.25% |
| MVWKVAVFLSVALGIGAVPIDDPEDGGKHWVVIVAGSNGWYNYRHQADACHAYQIIHRNGIPDEQIVVMMYDDIAYSEDNPTPGIVINRPNGTDVYQGVPKDYTGEDVTPQNFLAVLRGDAEAVKGIGSGKVLKSGPQDHVFIYFTDHGSTGILVFPNEDLHVKDLNETIHYMYKHKMYRKMVFYIEACESGSMMNHLPDNINVYATTAANPRESSYACYYDEKRSTYLGDWYSVNWMEDSDVEDLTKETLHKQYHLVKSHTNTSHVMQYGNKTISTMKVMQFQGMKRKASSPVPLPPVTHLDLTPSPDVPLTIMKRKLMNTNDLEESRQLTEEIQRHLDARHLIEKSVRKIVSLLAASEAEVEQLLSERAPLTGHSCYPEALLHFRTHCFNWHSPTYEYALRHLYVLVNLCEKPYPLHRIKLSMDHVCLGHY |  |  |  |  | percentage of EdU-negative [1, 5]: 5.13 ± 0.28%; percentage of EdU-negative [1, 6]: 5.28 ± 0.11%; percentage of EdU-negative [2, 5]: 26.412 ± 0.015%; percentage of EdU-negative [2, 6]: 26 ± 1.2% |
| MVWKWMPLLLLLVCVATMCSAQDRTDLLNVCMDAKHHKTKPGPEDKLHDQCSPWKKNACCTASTSQELHKDTSRLYNFNWDHCGKMEPACKRHFIQDTCLYECSPNLGPWIQQVNQSWRKERFLDVPLCKEDCQRWWEDCHTSHTCKSNWHRGWDWTSGVNKCPAGALCRTFESYFPTPAALCEGLWSHSYKVSNYSRGSGRCIQMWFDSAQGNPNEEVARFYAAAMHVNAGEMLHGTGGLLLSLALMLQLWLLG | 4.38 ± 0.49% | 5.92 ± 0.29% | 28.59 ± 0.11% | 27.6 ± 2.5% |  |
